Columns and labels:
Blanks dsRBD2 mutant = test: fluorescence anisotropy; conditions: n=3; assay buffer not given (as in ref 39); protein final buffer 100 mM KAc pH 7.4, 10 mM HEPES pH 7.4, 2 mM MgAc, 5 mM DTT (protein diluted 1:3 into it, then …)
[1] = tested on: Blanks wild-type (cDNA variant); test: fluorescence anisotropy; conditions: n=3; assay buffer not given (as in ref 39); protein final buffer 100 mM KAc pH 7.4, 10 mM HEPES pH 7.4, 2 mM MgAc, 5 mM DTT (protein diluted 1:3 into it, then …)

## 23 nt ds siRNA (21 bp)
Blanks dsRBD2 mutant
  Kd: 666 nM
[1]
  Kd: 177 nM
